Target: T1, CD73 on cells (MDA-MB-231 cells; human PBMC) (human, UniProt P21589 27-549)
T1 sequence (looked up): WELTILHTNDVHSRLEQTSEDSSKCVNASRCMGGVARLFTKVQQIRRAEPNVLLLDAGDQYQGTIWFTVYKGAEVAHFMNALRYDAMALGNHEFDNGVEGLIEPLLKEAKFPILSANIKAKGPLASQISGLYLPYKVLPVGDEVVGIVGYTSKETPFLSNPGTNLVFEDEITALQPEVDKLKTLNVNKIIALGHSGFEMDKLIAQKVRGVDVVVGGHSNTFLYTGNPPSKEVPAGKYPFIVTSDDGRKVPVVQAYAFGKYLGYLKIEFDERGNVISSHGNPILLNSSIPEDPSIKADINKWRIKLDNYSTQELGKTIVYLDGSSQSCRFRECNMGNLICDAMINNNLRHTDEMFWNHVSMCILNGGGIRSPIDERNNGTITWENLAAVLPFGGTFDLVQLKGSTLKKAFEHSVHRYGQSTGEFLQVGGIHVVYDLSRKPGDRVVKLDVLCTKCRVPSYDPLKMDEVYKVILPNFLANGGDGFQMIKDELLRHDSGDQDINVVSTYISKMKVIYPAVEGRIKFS
Test: cell-based or functional assay

EC50, T cell proliferation (human PBMC with AMP): 189 nM
EC50, interferon gamma production (human PBMC with AMP): 137 nM
B1: CPX-006 (antibody, human IgG1, kappa, N297Q, V domains shown)
VH: QVQLVQSGAEVEKPGASVKVSCKASGYTFTSYWITWVRQAPGQGLEWMGDIYPGSGNTNYNEKFKTRVTITADKSTSTAYMELSSLRSEDTAVYYCAKEGGLTTEDYALDYWGQGTLVTVSS
VL: EIVLTQSPATLSLSPGERATLSCRASKNVSTSGYSYMHWYQQKPGQAPRLLIYLASNLESGIPPRFSGSGYGTDFTLTINNIESEDAAYYFCQHSRELPFTFGQGTKVEIKR

Reference: patent publication US20210107989A1, “METHODS FOR TREATING CD73HI TUMORS” (CORVUS PHARMACEUTICALS, INC., priority 2017, published 2021)
